What was measured:
[1] = test system: Panc1 cells; experiment: Panc1 cell migration and invasion after rhDKK3; assay type: cell-based, human; details: Panc1, 10 μg/mL, 24 hours
Description: FIGS. 2A-J. DKK3 stimulates HPSC and PDAC activity and increases chemoresistance. (FIG. 2A) HPSC proliferation was measured by MTT after treatment with PBS or rhDKK3 (10 μg/ml). DKK3 was silenced in HPSCs by shDKK3 (FIG. 2B) and cell proliferation was measured by MTT assay (FIG. 2B) and migration was determined at 24 hours (FIG. 2C). Control cells were transfected with scrambled shRNA. (FIG. 2D) Panc1 cells were treated with rhDKK3 (10 μg/ml) or serum-free media control, and cell migration and invasion were measured after 24 hours. (FIGS. 2E-F) Panc1 cells were stably silenced for DKK3 and cell proliferation (FIG. 2E) and colony formation in soft agar (FIG. 2F) were measured. (FIG. 2G) BxPC3 cell migration was measured after treatment with CM from HPSCs or HPSCs silenced for DKK3. Soft agar colony formation (FIG. 2H) in gemcitabine and apoptosis (FIG. 2I) was determined in chemosensitive L3.6p1 cells expressing DKK3 compared with transfection controls. (FIG. 2J) Gemcitabine-induced apoptosis was measured in chemoresistant HS766T cells silenced for DKK3. *p<0.01, **p<0.001, ***p<0.0001, ****p<0.00001.
(§1) Cell-based assays. Cell proliferation was measured by the MTS assay (Promega, Madison, Wis.). […]

[2] = test system: NF-κB; experiment: NF-κB luciferase reporter assay in Panc28; assay type: cell-based, human; details: parental Panc28 cells
Description: FIGS. 3A-F. NF-κB is activated in PSCs and PDAC cells by DKK3 and is necessary for DKK3-mediated stimulation of cell activity. (FIG. 3A) Phosphorylation of p65 and IκBα induced by DKK3 treatment (10 μg/ml) was determined by Western blotting. Relative protein loading was shown by using anti-β-actin antibody. (FIG. 3B) Time course of p65 activation by WB in HPSC and Panc1 cells. Cells were treated with recombinant DKK3 (10 μg/ml) for 0-24 h and change in band density relative to baseline were quantified. (FIG. 3C) DKK3 stimulates NFκB luciferase reporter in HPSC & PDAC cells, with mutant luc reporter (MT). NFκB activity induced by DKK3 was measured in Panc28 with phosphorylation-defective IκBαM by luciferase reporter (FIG. 3D) and Western blotting (FIG. 3E). For FIGS. 3C&D, in each set of three columns, the left is “PBS,” the middle is “DKK3,” and the right is “TNFα.” (FIG. 3F) Proliferation of Panc28 and Panc28/IκBαM was measured by MTT assay. *p<0.05, **p<0.01, ***p<0.001 and ****p<0.0001 vs. PBS control.
NF-κB activity. NF-κB activity was determined by using a luciferase reporter assay. […] Luciferase signal was detected by using D-luciferin firefly potassium salt (Caliper Life Sciences, Hopkinton, Mass.) and the IVIS® imaging system (Xenogen Corp., Alameda, Calif.). […]

[3] = test system: CD3+ T cells; experiment: T cell division assay (CFSE); assay type: cell-based, human; details: stimulated CD3+ T cells, DKK3 5-10 μg/mL
Description: FIGS. 6A-F. DKK3 blockade is associated with increased tumor immune infiltrates and improves response to checkpoint inhibitor therapy. (FIG. 6A) T cells were stimulated, treated with DKK3 (5-10 μg/mL) and proliferation was measured by CFSE assay. In a syngeneic orthotopic model with luciferase-labeled KPC cells, tumors were examined for CD3 and CD8 expression by IHC (FIG. 6B) and additional markers of T cell activity were measured by quantitative PCR (FIG. 6C). Mice in this model were treated with either control IgG, DKK3 mAb JM6-6-1, αCTLA4 or the combination JM6-6-1+αCTLA4 and tumor growth was measured by IVIS imaging to 25 and 190 days (FIG. 6D). Survival in this orthotopic implantation model is shown in (FIG. 6E). Using a GEMM (FIG. 6F), KPC/DKK3^+/+ (black line) or KPC/DKK3^−/− (blue line) mice were treated with αCTLA4 or control IgG and the Kaplan Meier survival curve is shown. *p<0.05, **p<0.01, ***p<0.001.
T cell division assay. Peripheral blood mononuclear cells (PBMC) were obtained from buffy coat by density centrifugation using Histopaque 1077 (Sigma) and CD3^+ T-cells were isolated using a pan T-cell isolation kit (Miltenyi Biotec). […] DKK3 or HPSC-CM was added and after 96 hours, cells were stained for CD3, CD4, and CD8 to define lineage and analyzed by flow cytometry. […]

[4] = target: T1, recombinant human DKK3 (human, UniProt Q9UBP4 22-350); experiment: non-denaturing Western blot of recombinant protein
T1 construct: Bought recombinant protein (R&D); also called rhDKK3; recombinant human DKK-3/His
T1 sequence (Q9UBP4 22-350 limits assumed): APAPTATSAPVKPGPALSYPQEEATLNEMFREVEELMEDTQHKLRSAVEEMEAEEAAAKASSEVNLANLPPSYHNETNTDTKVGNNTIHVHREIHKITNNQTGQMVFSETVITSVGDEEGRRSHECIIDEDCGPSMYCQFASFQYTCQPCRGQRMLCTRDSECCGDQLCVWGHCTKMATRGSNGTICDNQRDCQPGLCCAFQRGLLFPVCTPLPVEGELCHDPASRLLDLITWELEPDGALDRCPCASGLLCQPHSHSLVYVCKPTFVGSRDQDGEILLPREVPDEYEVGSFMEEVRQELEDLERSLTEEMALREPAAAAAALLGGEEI

[5] = target: T2, recombinant mouse DKK3 (mouse, UniProt Q9QUN9 23-349, limits assumed); experiment: non-denaturing Western blot of recombinant protein
T2 construct: also called murine DKK3
T2 sequence (Q9QUN9 23-349 limits assumed): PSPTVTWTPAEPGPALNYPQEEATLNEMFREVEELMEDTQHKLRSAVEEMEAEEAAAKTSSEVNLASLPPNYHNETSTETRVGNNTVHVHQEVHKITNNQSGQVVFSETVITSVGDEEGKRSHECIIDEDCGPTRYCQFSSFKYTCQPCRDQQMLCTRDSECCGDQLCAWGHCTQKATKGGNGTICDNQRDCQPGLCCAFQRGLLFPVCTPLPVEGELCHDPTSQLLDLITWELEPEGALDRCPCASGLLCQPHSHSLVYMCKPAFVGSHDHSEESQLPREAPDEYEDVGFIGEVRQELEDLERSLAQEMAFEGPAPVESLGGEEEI

[6] = test system: BxPC3 cells; experiment: BxPC3 resistance to gemcitabine, MTS proliferation assay; assay type: cell-based, human; details: BxPC3, gemcitabine 100 μM, HPSC-CM 10 μg/ml, 6 days
Description: (§2) HPSCs and BxPC3 cells were treated with DKK3 mAb clones JM6-6-1 and JM8-12-1 or isotype control mAb or PBS. (FIGS. 5A-B) HPSC apoptosis and migration as measured by FACS and Transwell migration assay at 48 hours. (FIG. 5C) BxPC3 migration in response to rhDKK3 10 μg/ml as measured by Transwell migration assay at 48 hours. (FIG. 5D) BxPC3 resistance to gemcitabine 100 μM as measured by MTS proliferation assay at 6 days. HPSC-CM, pancreatic stellate cell conditioned media, 10 μg/ml. The orthotopic co-injection BxPC3+ HPSC model of PDAC was used to test the efficacy of DKK3 mAb clones JM6-6-1 or JM8-12-1 (5 mg/kg i.p. once every 5 days). (FIG. 5E) Overall tumor progression was measured every 3-4 days by IVIS imaging. (FIG. 5F) Metastatic tumors in the peritoneal cavity after removal of the primary pancreatic tumor are shown by IVIS imaging. (FIG. 5G) Kaplan Meier survival curve showing mice treated with DKK3 mAb clone JM8-12 (right-most line), control mAb (middle line), or PBS (left-most line). (FIG. 5H) KPC mice (P48-Cre; Kras LSL-G12D;Trp53fl/fl) with either wild type DKK3 (solid lines) or deficient in DKK3 (“DKK3-KO,” dashed lines) were treated with DKK3 mAb JM6-6-1 (5 mg/kg i.p. once every 5 days), PBS or control mAb. […]
as §1

[7] = test system: BxPC3 cells; experiment: BxPC3 Transwell migration in response to rhDKK3; assay type: cell-based, human; details: BxPC3, rhDKK3 10 μg/ml, 48 hours
Description: as §2, §1

[8] = test system: BxPC3 + HPSC orthotopic tumors; experiment: Orthotopic co-injection BxPC3 + HPSC nude mouse model of PDAC; assay type: in vivo; details: 5 mg/kg i.p. once every 5 days
Description: HPSCs and BxPC3 cells were treated with DKK3 mAb clones JM6-6-1 and JM8-12-1 or isotype control mAb or PBS. (FIGS. 5A-B) HPSC apoptosis and migration as measured by FACS and Transwell migration assay at 48 hours. (FIG. 5C) BxPC3 migration in response to rhDKK3 10 μg/ml as measured by Transwell migration assay at 48 hours. (FIG. 5D) BxPC3 resistance to gemcitabine 100 μM as measured by MTS proliferation assay at 6 days. HPSC-CM, pancreatic stellate cell conditioned media, 10 μg/ml. The orthotopic co-injection BxPC3+ HPSC model of PDAC was used to test the efficacy of DKK3 mAb clones JM6-6-1 or JM8-12-1 (5 mg/kg i.p. once every 5 days). (FIG. 5E) Overall tumor progression was measured every 3-4 days by IVIS imaging. (FIG. 5F) Metastatic tumors in the peritoneal cavity after removal of the primary pancreatic tumor are shown by IVIS imaging. (FIG. 5G) Kaplan Meier survival curve showing mice treated with DKK3 mAb clone JM8-12 (right-most line), control mAb (middle line), or PBS (left-most line). (FIG. 5H) KPC mice (P48-Cre; Kras LSL-G12D;Trp53fl/fl) with either wild type DKK3 (solid lines) or deficient in DKK3 (“DKK3-KO,” dashed lines) were treated with DKK3 mAb JM6-6-1 (5 mg/kg i.p. once every 5 days), PBS or control mAb. Kaplan Meier survival curve is shown with hazard ratios (Log-rank test). *p<0.05, **p<0.01, ***p<0.001, ****p<0.0001 vs. control Ab.
An orthotopic nude mouse model of PDAC using BxPC3 cancer cells labeled with firefly luciferase (BxPC3-FL) co-injected with HPSCs has been previously described (Hwang et al., 2008). Mice received intrapancreatic injections of BxPC3-FL (1×10^6 per mouse) with HPSC-shControl or HPSC-shDKK3 in a tumor-to-stroma ratio of 1:0 or 1:3 in 50-μL of HBSS and tumor growth was monitored using IVIS imaging (Hwang et al., 2008). In addition, a syngeneic immunocompetent DKK3 null model was used, provided by Dr. C. Niehrs (Barrantes Idel et al., 2006), that was injected with murine PDAC cells (termed “KPC cells”) isolated from tumors arising in a GEMM of PDAC (Pdx1-Cre; Kras^LSL-G12D;Trp53^R172H/+) (Hingorani et al., 2005; Hingorani et al., 2003) and labeled with luciferase.
The efficacy of DKK3 mAb was tested in vivo using the previously described orthotopic co-implantation nude mouse model of PDAC with human PSCs mixed with luciferase-labeled BxPC3 cancer cells (1:3 tumor:PSC ratio). Mice were treated with either phosphate-buffered saline (PBS), isotype control mAb, or DKK3 mAb (clone JM6-6-1; 5 mg/kg i.p. once every 5 days) and tumor growth was followed with IVIS imaging. […] Tumors in the PBS and control mAb groups grew rapidly from day 22 onward, with an 8-fold increase in the luciferase signal.

In the case of rhDKK3: recombinant human DKK3 (R&D), the “increase in invasion vs PBS controls” value [1] is reported as > 3 fold, the “increase in migration vs PBS controls” value [1] is reported as ~100% and the “induction of NF-κB promoter activity relative to PBS control” value [2] is reported as 33%. The “inhibition of cell proliferation compared to media alone” value [3] was 4.7-11.5 fold.

B1: DKK3 mAb clone JM6-6-1 (antibody, V domains shown)
VH: EVKLVESGGGLVKPGGSLKLSCAASGFTFTIEYMAWIRQTPEKRLEWVASISSGGDDIYYADNVKGRFTISRDNAKNTLYLQMSSLKSEDTAIYYCSRSLSDWGQGTTLTVSS
VL: MTQTPLSLPVSLGDQASISCRSSQSILHSNGHTYLEWYLQKPGQSPKLLIYKVSNRFSGVPDRFSGSGSGTDFTLKISRVEAEDLGVYYCFQGSHVPFTFGSGTKLEIER
notes: Mouse hybridoma mAb from A/J mice immunized with recombinant human DKK-3/His; the negative control is an IgG1 isotype control; also called anti-DKK3 mAb JM6-6-1; DKK3 antibody JM6-6-1
B1: binds [4]; binds [5].

B2: JM8-12-1: monoclonal antibody against human DKK3; heavy chain variable SEQ ID NO: 17, light chain variable SEQ ID NO: 18 (tabled as JM8-12-2) (antibody, V domains shown)
VH: MKPSQSLSLTCTVTGYSITSDYAWNWIRQFPGNKLEWMGYISYRGSTRYNPSLKSRISITRDTSKNQLYLQLHSVTTEDTATYYCVHDGYYWVQQTLVTVSAAKTTPPSDY
VL: QDPRVDIVLTQSPASLAVSLFQRATISYRASKSVSTSGYSYMHWNQQKPGQPPRLLIYLVSNLESGVPARFSGSGSGTDFTLNIHPVEEEDAATYYCQHIRELTRSEGGPSWK
With B2 the “effect on DKK3-mediated chemoresistance to gemcitabine” value [6] was “abrogated the DKK3-mediated induction of chemoresistance to gemcitabine”, the “effect on DKK3-mediated induction of migration” value [7] was “reverse the DKK3-mediated induction of migration” and the “hazard ratio compared with PBS control group” value [8] was 0.26. The median survival [8] was 50 days.

From patent US20210340232A1, “MONOCLONAL ANTIBODIES AGAINST HUMAN DICKKOPF3 AND USES THEREOF” (Board of Regents, The University of Texas System, priority 2018, published 2021)
